Experimental data from patent US20230183753A1 (INTELLIA THERAPEUTICS, published 2023).

Biological target: WT1 peptide … (VLD peptide) pulsed on OCI-AML3 target cells
Test: cell-based or functional assay

- Cumulative Fold Change in T cell number after stimulation 1 with OCI-AML3 cells pulsed with 500 nM VLD peptide, EP + AAV engineered T cells: 7.9 fold
- Cumulative Fold Change in T cell number after stimulation 1 with OCI-AML3 cells pulsed with 500 nM VLD peptide, LNP + AAV engineered T cells: 7.2 fold
- Cumulative Fold Change in T cell number after stimulation 2 with OCI-AML3 cells pulsed with 500 nM VLD peptide, EP + AAV engineered T cells: 19 fold
- Cumulative Fold Change in T cell number after stimulation 2 with OCI-AML3 cells pulsed with 500 nM VLD peptide, LNP + AAV engineered T cells: 34.2 fold
- Cumulative Fold Change in T cell number after stimulation 3 with OCI-AML3 cells pulsed with 500 nM VLD peptide, EP + AAV engineered T cells: 27.1 fold
- Cumulative Fold Change in T cell number after stimulation 3 with OCI-AML3 cells pulsed with 500 nM VLD peptide, LNP + AAV engineered T cells: 120 fold
B1: WT1 targeting transgenic T cell receptor (tgTCR) (TCR, V domains shown)
V domain 1: DAGVIQSPRHEVTEMGQEVTLRCKPISGHDYLFWYRQTMMRGLELLIYFNNNVPIDDSGMPEDRFSAKMPNASFSTLKIQPSEPRDSAVYFCASRKTGGYSNQPQHFGDGTRLSILE
V domain 2: SQQPVQSPQAVILREGEDAVINCSSSKALYSVHWYRQKHGEAPVFLMILLKGGEQKGHEKISASFNEKKQQSSLYLTASQLSYSGTYFCGTAWINDYKLSFGAGTTVTVRA
